The text below walks through data of publication PMC11882849, “Dynamic and intricate regulation by the Csr sRNAs in the Arctic Pseudoalteromonas fuliginea”.

The target of this data set is CsrA (Pseudoalteromonas fuliginea BSW20308, UniProt A0A063KJE6 1-63). The data set is described as follows: EMSA; 1 uM CsrA; 0.1-0.5 nM RNA, 40 mM NaCl, 4 mM Tris pH 8.0, 4 mM MgCl2, 4% glycerol, 100 mg/ml BSA (so in the source), 20 mM DTT, room temperature 30 min, native PAGE. The following applies: protein: recombinant; tags: C-terminal His6; chain copies: 2. (Mobility shift assays separate free from complexed probe on a gel.)

B1: Pf3 sRNA (structured_RNA)
RNA: AAUAAAAAAACGGAAAUAGCUAUAAGGAAAGUAGCGCGGCACGACUACAUAGCACAAGAUUGGUGCUACUAAAGGAAAUAAUAAAAAAGAGUCAGGAAGACCGAUAAUAAUAAAAACUCAUGGAAGUUUAAUAAUAAAAACAAAAUGGAAUGCUACAAGGAACGUAAAAAUAAUAACAAUACGGACUGAUAAUAAUAAAAAUAAUAAAGACUAAAAAAAGUCGAAGGGAGA
Regarding B1, the binding result is “binds”.
